According to US6521740 (IMMUNEX, dated 2003):

What was measured:
recombinant human IL-1α = target: T1, recombinant human IL-1α (human, UniProt P01583 113-271, limits assumed); experiment: Inhibition binding assay; soluble receptor against IL-1α binding to CB23 cells; same procedure
T1 construct: also called Interleukin-1α
T1 sequence (looked up): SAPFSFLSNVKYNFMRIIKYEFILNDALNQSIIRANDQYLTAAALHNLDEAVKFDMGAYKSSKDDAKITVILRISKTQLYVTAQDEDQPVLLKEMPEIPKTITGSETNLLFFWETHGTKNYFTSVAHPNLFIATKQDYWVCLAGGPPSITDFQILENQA

recombinant human IL-1β = target: T2, recombinant human IL-1β (human, UniProt P01584 117-269); experiment: Inhibition binding assay; soluble receptor (COS-7 supernatant, serially diluted) against 125I-IL-1β binding to CB23 cells; phthalate oil separation
T2 construct: The 17.5 kD size is consistent with the mature form; also called rIL-1β
Method: The binding inhibition constant of the soluble human type II IL-1R, expressed and purified as described in Example 2 above, is determined by a inhibition binding assay in which varying concentrations of an IL-1β competitor is incubated with a constant amount of radiolabeled I-IL-1β and CB23 cells (an Epstein Barr virus transformed cord blood B lymphocyte cell line) expressing the type II IL-1R. Binding assays were also performed by a phtahlate oil separation method essentially as describe by Dower et al., *J. Immunol.* 132:751, 1984 and Park et al., *J. Biol. Chem.* 261:4177, 1986. Briefly, COS-7 cells were transfected with the expression vector pDC406 containing a cDNA encoding the soluble human type II IL-1R described above. Supernatants from the COS cells were harvested 3 days after transfection and serially diluted in binding medium (Roswell Park Memorial Institute (RPMI) 1640 medium containing 2% BSA, 20 mM Hepes buffer, and 0.2% sodium azide, pH 7.2) in […] to a volume of 50 μl/well. […] Duplicate 60 μl aliquots of the incubation mixture were then transferred to polyethylene centrifuge tubes containing a phthalate oil mixture comprising 1.5 parts dibutylphthalate, to 1 part bis(s-ethylhexyl)phthalate. […] The radioactivity of the cells was then determined on a gamma counter.

KI (binding inhibition constant, given as an association constant) (recombinant human IL-1α): 1.4e+08 M⁻¹
KI (binding inhibition constant, given as an association constant) (recombinant human IL-1β): ~3.5e+09 M⁻¹
B1: soluble human type II IL-1R (amino acids -13-333 of SEQ ID NO:1) (receptor)
chain: FTLQPAAHTGAARSCRFRGRHYKREFRLEGEPVALRCPQVPYWLWASVSPRINLTWHKNDSARTVPGEEETRMWAQDGALWLLPALQEDSGTYVCTTRNASYCDKMSIELRVFENTDAFLPFISYPQILTLSTSGVLVCPDLSEFTRDKTDVKIQWYKDSLLLDKDNEKFLSVRGTTHLLVHDVALEDAGYYRCVLTFAHEGQQYNITRSIELRIKKKKEETIPVIISPLKTISASLGSRLTIPCKVFLGTGTPLTTMLWWTANDTHIESAYPGGRVTEGPRQEYSENNENYIEVPLIFDPVTREDLHMDFKCVVHNTLSFQTLRTTVKEASS
notes: It includes 3 amino acids of the predicted transmembrane region (331-356)
